# Measured values taken from article PMC10099132, “Sequence and Structural Motifs Controlling the Broad Substrate Specificity of the Mycobacterial Hormone-Sensitive Lipase LipN” (ACS Omega, 2023).
# Legend:
# [1] = tested on: CC(=O)OCOc1ccc2c(c1)Oc1cc(OCOC(C)=O)ccc1C21OC(=O)c2ccccc21; test: purified protein, by the assay type; design: fluorogenic ester hydrolysis, fluorescein release, Michaelis-Menten fit of initial rates
# Protocol: (§1) The enzyme kinetic activity of LipN was assayed via the hydrolysis of the fluorogenic substrates (Figure 1) in accordance with past kinetic analysis of mycobacterial serine hydrolases.[37],[38],[40],[66],[67] Kinetic assays were run in triplicate on black 96-well plates in a Synergy H1 Hybrid Reader (BioTek). Fluorogenic ester substrates (10 mM in DMSO) were diluted to a starting concentration of 100 μM in PBS containing acetylated BSA (Sigma; 0.1 mg/mL). Eight serial dilutions (1:1; 120 μL into 240 μL total volume) of each substrate were made using PBS–BSA. Fluorogenic substrate dilutions (95 μL) were then transferred to opaque 96-well microplate (Corning, Lowell, MA). Reactions were initiated by quickly adding enzyme (5 μL, 3.0 nM final concentration) to each assay well, mixed, and the fluorescence counts measured every 26–30 s for 4.5 min with a BioTek H1 Synergy multimode plate reader (Biotek Instruments; Winooski, VT) at ambient temperature. The instrument measured relative fluorescence through excitation at λ = 485 nm and emission at λ = 520 nm. The fluorescence change was converted to molar concentrations using a fluorescein standard curve (300–2.3 nM), whose fluorescence was measured simultaneously. The initial rates of the enzyme-catalyzed reactions were measured in triplicate and plotted versus fluorogenic substrate concentration. […] (A) Activation of fluorogenic ester substrates by MmLipN. Each of the substrates is composed of diacyloxymethyl ether fluorescein with varying R-groups. The differing R-groups have been organized into classes and colored based on chemical functionality. All of the substrates were synthesized as described previously.[38],[43] Substrates 6, 10–11, 14–15, 20, 23–30, and 33 were newly synthesized for this characterization of MmLipN. Detailed synthetic characterization is provided in the Supporting Information. (B) Global comparison of the catalytic specificity (kcat/KM) of MmLipN against each of the 33 substrates with ester classes labeled. Catalytic efficiency values (kcat/Km) are given ± SD based on at least three independent kinetic replicates. (C, D) Kinetic activity of MmLipN against high-activity ester substrates 1 (black circles), 7 (blue squares), and 20 (red diamonds) and low-activity ester substrates 12 (green circles), 16 (red squares), 27 (purple diamonds), and 31 (orange squares). Low- and high-activity substrates display classic Michaelis–Menten kinetics with MmLipN and activity above background hydrolysis rates. Traces colored based on ester classification from (A, B). All measurements were completed in at least triplicate and shown ± SD.
# [2] = tested on: CS(=O)(=O)C1(C(=O)OCOc2ccc3c(c2)Oc2cc(OCOC(=O)C4(S(C)(=O)=O)CC4)ccc2C32OC(=O)c3ccccc32)CC1; test: purified protein, by the assay type; design: fluorogenic ester hydrolysis, fluorescein release, Michaelis-Menten fit of initial rates
# Protocol: as §1
# [3] = tested on: O=C(OCOc1ccc2c(c1)Oc1cc(OCOC(=O)c3ccco3)ccc1C21OC(=O)c2ccccc21)c1ccco1; test: purified protein, by the assay type; design: fluorogenic ester hydrolysis, fluorescein release, Michaelis-Menten fit of initial rates
# Protocol: as §1
# [4] = tested on: O=C1OC2(c3ccc(OCOC(=O)C4(C(F)(F)F)CC4)cc3Oc3cc(OCOC(=O)C4(C(F)(F)F)CC4)ccc32)c2ccccc21; test: purified protein, by the assay type; design: fluorogenic ester hydrolysis, fluorescein release, Michaelis-Menten fit of initial rates
# Protocol: as §1
# [5] = tested on: O=C1OC2(c3ccc(OCOC(=O)C4(O)CC4)cc3Oc3cc(OCOC(=O)C4(O)CC4)ccc32)c2ccccc21; test: purified protein, by the assay type; design: fluorogenic ester hydrolysis, fluorescein release, Michaelis-Menten fit of initial rates
# Protocol: as §1
# [6] = tested on: O=C1OC2(c3ccc(OCOC(=O)C4CCCC4)cc3Oc3cc(OCOC(=O)C4CCCC4)ccc32)c2ccccc21; test: purified protein, by the assay type; design: fluorogenic ester hydrolysis, fluorescein release, Michaelis-Menten fit of initial rates
# Protocol: as §1
# [7] = tested on: CCCC(=O)Oc1ccc([N+](=O)[O-])cc1; test: purified protein, by the assay type; design: p-nitrophenyl ester hydrolysis, absorbance at 412 nm, Michaelis-Menten fit
# Source text: (A) Classic p-nitrophenyl ester substrates were used as conformation for fluorogenic substrate measurements (Figure 1). (B) Catalytic efficiency comparison of MmLipN against p-nitrophenyl substrates. Catalytic efficiency values (kcat/Km) are given ± SD. (C, D) Kinetic activity of MmLipN against (C) short alkyl ester substrates: p-nitrophenyl acetate (C2) and p-nitrophenyl butyrate (C4) and (D) longer alkyl ester substrates: p-nitrophenyl valerate ([…]), p-nitrophenyl octonoate (C8), and p-nitrophenyl myristate (C14). Data points were fitted to the Michaelis–Menten equation and are shown ± SD.
# [8] = target: T1, MmLipN (LipN from M. marinum) (Mycobacterium marinum, UniProt B2HIK1); test: p-nitrophenol release at […] nm, Michaelis-Menten fit; type: biochemical; details: PBS, acetylated BSA 0.1 mg/mL, acetonitrile, 36 nM enzyme, 25 °C
# T1 construct: E. coli LOBSTR (DE3); Ni-NTA
# T1 sequence (B2HIK1 1-372): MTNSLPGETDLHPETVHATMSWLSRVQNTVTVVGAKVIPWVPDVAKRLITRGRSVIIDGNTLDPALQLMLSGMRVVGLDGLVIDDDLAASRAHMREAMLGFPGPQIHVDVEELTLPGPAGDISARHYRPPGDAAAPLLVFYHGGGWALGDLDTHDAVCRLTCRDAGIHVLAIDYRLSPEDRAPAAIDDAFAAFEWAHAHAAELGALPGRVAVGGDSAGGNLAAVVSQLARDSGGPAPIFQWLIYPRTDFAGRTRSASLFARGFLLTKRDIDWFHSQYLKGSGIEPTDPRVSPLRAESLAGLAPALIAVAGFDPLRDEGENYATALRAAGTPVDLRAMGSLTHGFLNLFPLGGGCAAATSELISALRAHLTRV
molecule,measurement,setting,value
MmLipN (LipN from M. marinum) (Mycobacterium marinum M),Km,[1],0.22 ± 0.12 µM
same,kcat,[1],0.1 ± 0.038 s⁻¹
same,kcat/Km,[1],460000 ± 150000 M⁻¹ s⁻¹
same,Km,[2],0.084 ± 0.15 µM
same,kcat,[2],1.4e-05 ± 5e-05 s⁻¹
same,kcat/Km,[2],170 ± 330 M⁻¹ s⁻¹
same,Km,[3],0.84 ± 0.60 µM
same,kcat,[3],0.003 ± 0.0048 s⁻¹
same,kcat/Km,[3],3500 ± 3100 M⁻¹ s⁻¹
same,Km,[4],0.37 ± 0.13 µM
same,kcat,[4],3.7e-05 ± 3e-05 s⁻¹
same,kcat/Km,[4],98 ± 43 M⁻¹ s⁻¹
same,Km,[5],0.40 ± 0.10 µM
same,kcat,[5],0.0029 ± 0.0016 s⁻¹
same,kcat/Km,[5],7400 ± 2200 M⁻¹ s⁻¹
same,Km,[6],33.9 ± 7.71 µM
same,kcat,[6],0.0012 ± 0.0001 s⁻¹
same,kcat/Km,[6],29 ± 4 M⁻¹ s⁻¹
same,Km,[7],0.020 ± 0.009 mM
same,kcat,[7],190 ± 10 s⁻¹
same,kcat/Km,[7],9.3e+06 ± 2.1e+06 M⁻¹ s⁻¹
CCCC(=O)Oc1ccc([N+](=O)[O-])cc1 [p-nitrophenyl butyrate],KM,[8],LipN showed highest activity against p-nitrophenyl butyrate
CCCCC(=O)Oc1ccc([N+](=O)[O-])cc1 [p-nitrophenyl valerate],KM,[8],"MmLipN was measured against p-nitrophenyl acetate, p-nitrophenyl butyrate, p-nitrophenyl valerate"
CC(=O)Oc1ccc([N+](=O)[O-])cc1 [p-nitrophenyl acetate],KM,[8],The enzymatic activity of MmLipN was measured against p-nitrophenyl acetate
